Measurements published in a protein production outcome set (Wang et al. 2014).

Assay: label from the status in PepcDB records

Sequence	protein production
MSQSKEDKIRSILEAKNIKSNFQNKENLSEFNEKKASKRAEDLLDVYYNTLSTADMEFPYWYNREYRKSDGDIPVVRRAKALKAAFSHMTPNIIPGEKIVMQKTRHYRGSFPMPWVSESFFVAQGEQMREEAKKLASNTADELTKFGSGGGNVTESFGNVVSIAGKFGMRKEEVPVLVKMAKEWVGKSVEDLGFHYEKMMPDYDLKENLMSTLICMFDSGYTLPQGREVINYFYPLNYGLDGIIEMAKECKKAVAGNASGDGLIGMDRLYFYEAVIQVIEGLQTWILNYAKHAKYLESIETDLEAKKEYSDLVEILEHIAHKQPRTFREALQLTYTIHIASVNEDAISGMSIGRFGQILYPWYEQDIEKGLITKEEVIELLELYRIKITCIDCFASAGVNGGVLSGNTFNTLSIGGLKEDGSTGANELEELLLEASMRCRTPQPSLTMLYDEKLPEDFLMKAAECTKLGSGYPAWVNNSNGTTFMMKQFADEGMTVEEARAFALGGCLETSPGCWKQLTLNGKTYSIAGGAGQSAGSGVHFIANPKILELVLMNGKDYRMNIQVFEPHNKPLDTYEEVIEVFKDYYKQAINVLERANNIELDIWRKFDTSIINSLLKPDCLDKGQHIGNMGYRYNATLNVETCGTVTMVNSFAALKKLVYDDKAFTIEEMKDAILNNFGFKDALEVGNYSMADQVKVDKTGKYDAIYKACLDAPKYGNNDLYADNILKNYEVWLSKVCEEAQSLYAKKMYPCQISVSTHGPQGAATLATPDGRLSGTTYSDGSVSAYAGTDKNGVYALFESATIWDQAVVQNSQMNLKLHPTTIKGQQGTKKLLDLTRSYLRKGGFHIQYNVVDSETLKDAQKNPDNYRQLMVRVAGFTQYWCELGKPIQDEVIARTEYEGV	failed
MEEVSSEMEVEVQNRQLSDSSPAQNVKKFGLKNSIQTNFGSDYVFQIVPKIDWTAIAVSLSTNTVKLYSPVTGQYYGECKGHSDTVNQIAFSSDSAASPHVLHSCSSDGTIRSWDTRSFQQVSRIDTGNDQEIFSFSYGGAADNLLAGGCKEQVLLWDWRNSKQVACLEESHMDDVTQVHFVPNKPNKLLSASVDGLICLFNTEGDINDDDHLESVINVGTSIGKIGFLGDGYKKLWCLTHIETLSIWNWEDGSCEVNLEKARELASDSWTQDNVDYFVDCHCPGGEDLWVIGGTCAGTVGYFPVNYKQPGSIGTAEAILGGGHIDVVRSVLQMPGEYGGAAGLFGWTGGEDGRLCCWKSDEDATEINRSWTSSELVVKPPRNRKKNRHSPY	failed
MMETTAGDTLQQFVTAPVRTATYKRLLYLLLAFPLGVAYFVAFTTGSSLGLGLAFTLVGLPVLLVTLVATTGAAGLEARLATVLLDQEVATPPSPRETLDSDDGYLAAVWRFATEPTTWTSVAVVLLKFVYGIVAFVVTITGTALVGTLLAAPFVYDDPGVNYQFGQYAVSTLPEAIGVATVGVAGIWILCNVINVVAAAGGLMTDAFLSVGRERAA	failed
MMRHSSLRLIIGGLILLLFVLNVFSKEQGSHSHKRSHSAKRFSRDSNSARERRPNIILILTDDQDVELGSLNFMPRTLRLLRDGGAEFRHAYTTTPMCCPARSSLLTGMYVHNHMVFTNNDNCSSPQWQATHETRSYATYLSNAGYRTGYFGKYLNKYNGSYIPPGWREWGGLIMNSKYYNYSINLNGQKIKHGFDYAKDYYPDLIANDSIAFLRSSKQQNQRKPVLLTMSFPAPHGPEDSAPQYSHLFFNVTTHHTPSYDHAPNPDKQWILRVTEPMQPVHKRFTNLLMTKRLQTLQSVDVAVERVYNELKELGELDNTYIVYTSDHGYHLGQFGLIKGKSFPFEFDVRVPFLIRGPGIQASKVVNEIVLNVDLAPTFLDMGGVPTPQHMDGRSILPLLLSRNRAVRDNWPDSFLIESSGRRETAEQIAESRARLQIERRNMKLANSSLLEDFLEGAGESTTIVSSSSTAATLMSSTAQQPEDGEEEVETDNEEDDVDGDGAMDSSAAALEEDDLDDAAFEEGDEELDQEFQQNNDLPLAPYITKMMRLNSECSDPALLKNCLPGQKWKCVNEEGRWRKHKCKFHLQLEHQLAAMPRKQYQRNCACFTPDGVVYTKIRAPSAGLHRVNKRTHNGPGRRRNKREVFHTELPDEMEELLDLHQVVDQLVDHTHRSKRDLPASSNETIAQVIQQIQSTLEILELKFNEHELHASNSSGNSYERGEKYTKSGGHRCFVDATTAKVNCSNVIYDDEKTWRTSRTQIDMLIKLLKDKIGKLKEMKKQLRESNKQALAAGRRNDNRRRNDQSVLDSGAGPEFNMSYFTEISSTPRSNVVGQTEVFQGYGSASAFDSLEQTQSHRFTPRAECYCEPDVGENHADSKEMAREARRKLKEERQRKKERKRIKKARLEKECLSEKMNCFSHDNQHWRTAPLWNDSPFCFCMNANNNTYSCLRTINGTHNFLYCEFTTGLITFYNLTIDRFETINRAAGLTPGERSHMHDALDQLKSCRGRSCSIRRHQNHLEGGSSAPLLPINQVHRNNKRKHSPLAGAVGNYAFVGPRLDMEALPPIKRRKLSKYNRLTGSQQSHMKRRPWKQTPLQQSPRFLRTHSVTPAQA	failed
MTPELNLKSLGAKTPYIFEYNSQLLEAFPNPNPNLDPLITLECKEFTSLCPITSQPDFGVIFIRYIPKDKMVESKSLKLYLFSYRNHGSFHESCINTILLDLVRLLEPKYLEVYGDFASRGGIAIKPFVNYAIKEYQDFKEKRLLNAK	failed
MSLSNHSSDIEVGHSMNLTNHFLVAMPSMKDPYFKRSVIYICEHNQDGAMGLMINAPIDITVGGMLKQVDIEPAYPQSHQENLKKPVFNGGPVSEDRGFILHRPRDHYESSMKMTDDIAVTTSKDILTVLGTEAEPEGYIVALGYSGWSAGQLEVELTENSWLTIEADPELIFNTPVHEKWQKAIQKLGISPAQLSSDAGHEGGSHHHHHH	not failed
TTQNELLNRIAELETKVAFQDNVIEELNQVLIHHQFVLDKLQTQVRHFANKFKNIQSSNVASQAEETPPPHY	failed
MLRPAGLWRLCRRPWAARVPAENLGRREVTSGVSPRGSTSPRTLNIFDRDLKRKQKNWAARQPEPTKFDYLKEEVGSRIADRVYDIPRNFPLALDLGCGRGYIAQYLNKETIGKFFQAAIAENALKNSSETEIPTVSVLADEEFLPFKENTFDLVVSSLSLHWVNDLPRALEQIHYILKPDGVFIGAMFGGDTLYELRCSLQLAETEREGGFSPHISPFTAVNDLGHLLGRAGFNTLTVDTDEIQVNYPGMFELMEDLQGMGESNCAWNRKALLHRDTMLAAAAVYREMYRNEDGSVPATYQIYYMIGWKYHESQARPAERGSATVSFGELGKINNLMPPGKKSQ	failed
MKADKWNHVETARYFRDLQENEVRTMHYLGLAYVVLSRRPNLQLKVPLSTQNYEDGAIVGAGERGGYALQLLFTCAANYPLARPLVEIVEKRNVSDAFEQVLRKEIDLILEEHLGLQMIVPVVTRLQITLNTEMKR	not failed
MISPERLRVYRFFASLTDEQLKDIALISEEKSFPTGSVIFKENSKADNLMLLLEGGVELFYSNGGAGSAANSTVCSVVPGAIFGVSSLIKPYHYTSSARATKPVRVVDINGARLREMSENNQALGQVLMNNVAAAVLARLH	not failed
MNEDALTFLSRQHPYDELPAGVLNDVAAQVEKLSVAEGEMIYAYGEPLEGLYIIQSGLVDVRDQSDTQVSMLERGNSFGERGLLADGNAVTSARAVRDTLLIRVPVSLFNTLRTEQSPFQRFFARSSARPDKSATQQTSLAQVSVDALMVRNPVTCTPGTSVVDAAVLMTSRRISCLCITEEDRLTGIVTLRDLVGKALAAGLPPQTPLSDIIQNEPVSLPPTAIGSDVLHMMMEYNLGHLPIVDAGKLVGIVTQTDLTRYQATTAAGLVADAARAQSVEALADITGRIPALLVQLVAAGNRHDVVTRMITDIADVVTRRLLNMAEEKLGPAPLRYLWLACGSQGRQEQTGVSDQDNCLILEDGASRDDIAYFHEMATFVSDGLNACGYVYCPGDMMATNPRWCQPLSVWKEYFNGWIKSPSKEAQMLASVMFDLRPIGGDASLFHGMQQATLEKAAKNSIFTAHMASNSLTHQTPLGLLRGLATISSGDHRKTIDTKLNGVVPVVDLGRMYALQGKLTVANTRARLIAALNNKTISAKGGRDLLEAYDLVAQTRLEHQARLIKEGKAPDNYLPPARLSDFERSHLRDAFVVIKTMQSALMQGRGILG	failed
MRKKLNNEYRSAKKIRYMPGLDGLRAIAVIGIIIYHLNKQWLTGGFLGVDTFFVISGYLITSLLLKEYEDTGTINLKNFWIRRIKRLLPAVFALIVVVGIATLLLHPEHIVRVKHDMIAAIFYVSNWWYIAKDVNYFEQFSFMPLKHLWSLAIEEQFYLFFPAVLLLFMAIVKKKKNVILMFWIISLVSLLMMVVISQPHLNHSRVYFGTDTRLQTLLLGVLLAFIWPPFKLNPNPPKGLKTVINSAGIIGLTFLILLFFTVSDESDWIYNGGFYLISTMTLLIIASVVHPTTILAKLLGNPLFVYIGKRSYSLYLWHFPVISFIHSYFIDGQLPTYVYIMDIVITVLLAELSFRYVETPLRKEGLKAFTFKKTYKPQFIRTIVTLIMLLPFIFILVGAFDKFGKDTISNKAQTFNTNEADQYLIHMIPIDNISLTSDGKTKENKKDNDVYTQIKPLLIGDSVMVDIGEQFKTKVPKAKIDGKVGRQLYQAESLVKNQYRHYNKPSDQIILELGTNGDFTKEQLDNLIDKFGKAQVYLVNTRVPRSYESHVNELMAKAAKNKKNVTLIDWYSRSKGHTEYFAPDGIHLENDGVEALTDEILKNIKKK	failed
MKPTNKAQDDDAVFALSTEVNHKLDLHQSSAEALRLAGVYTRQSCVLDLYHGYRSDDEDTEPDEEDGRLQTVREYHENGMLKLMRTFVRRLRRDATDPTAESSYYDRVVEEKHYDPSGICRVDMHFALGQPYLYRKHYYPNNRLKSEKVFFVEDEETMRARKVGHWRTYYENGNIQSEIIYNKDGVRCGFCKRYAIDGAIEWVKDYTREQEERLQAFNAKRGNLDLTVTDAARVLGLEGDWCSHVVNRTFRSKCAPLHPDWRRTAGDKAGETWEEEQRTEAFIRLSRAREVLLKFLETHPRECSCERGGA	not failed
MSLSTFNRIHLVVLDSVGIGAAPDANNFSNAGVPDGASDTLGHISKTVGLNVPNMAKIGLGNIPRDTPLKTVPAENHPTGYVTKLEEVSLGKDTMTGHWEIMGLNITEPFDTFWNGFPEEIISKIEKFSGRKVIREANKPYSGTAVIDDFGPRQMETGELIIYTSADPVLQIAAHEDVIPLDELYRICEYARSITLERPALLGRIIARPYVGKPRNFTRTANRHDYALSPFAPTVLNKLADAGVSTYAVGKINDIFNGSGITNDMGHNKSNSHGVDTLIKTMGLSAFTKGFSFTNLVDFDALYGHRRNAHGYRDCLHEFDERLPEIIAAMKVDDLLLITADHGNDPTYAGTDHTREYVPLLAYSPSFTGNGVLPVGHYADISATIADNFGVDTAMIGESFLDKLIEGHHHHHH	not failed
MLTNVVAVLLDGVHPFELGVVCEVFGIDRSDEGLPVYEFAVASAEGPTLRTHAGFSLRTEHGLERLETADLITLPAGNSYVSRGYPPELLDALRRAVDRGARLLSVCSGVFVLGAAGLLDGRRCAVHWHHADELARQYPKAIVEPDVLYVDEDPVITSAGTAAGIDACLHIVRKEQGPEVANAIARRMVVPPHRDGGQAQYIERPLPRSPCDTVGEVLVWMEQHLDEEVTVEQLAARAHMSPRTFARRFQQETGTTPYRWILRQRVLLAQRLLEVTDETMDAIAGRTGFGTAAALRHQFVRSLGTTPNAYRRTFRGPATGPLGLAG	failed
MSIDFYNQNASSFYASTVEVDSSSLLEQFTPYLPKGGSVLDAGCGSGRDSKRLIELGFHVDAFDASAALATLAQQLLGKPVRVATFMQFTSTLQYDGIWACASLLHVSKASLPDAFAHLASMLKSGGAFYCSFKYGQGEVERDGRSFTHCDEALLAELLTGSPLVIDKVWLTTDLRVGRENEQWLNAVLLKRLEHHHHHH	not failed
